For orientation: EC50 means the midpoint of the concentration-response curve. Low values mean greater potency, high ones weaker potency. The term EC50 (read off the curve) denotes the concentration needed to bring the measured effect to its halfway point. A high value points to a less potent agent. As a reminder, the Kd is the free concentration of one partner at which half of the binding sites on the other are occupied at equilibrium, for simple one-to-one binding. A low value points to a tighter complex.

From patent US20250263499A1 (SHENGHE CHINA BIOPHARMACEUTICAL, published 2025) come the findings set out here.

The target in experiment [1] is CD24 on tumor cells (MCF7, SKOV3, HT55, huCD24-MDA-MB-231, CD24-SKOV3) (human) (UniProt P25063). The experiment is described as follows: flow cytometry on MCF7 cells (MFI); fit value given for a flat control curve; unit inferred, unit from the x axis label.
Experiment [2] shares this target. The experiment in a line: flow cytometry on SKOV3 cells (MFI); fit value given for a flat control curve; unit inferred, unit from the x axis label.
For experiment [3] the target is unchanged. The experiment is described as follows: flow cytometry on huCD24-MDA-MB-231 cells (MFI); fit value given for a flat control curve; unit inferred, unit from the x axis label.
The target is the same in experiment [4]. The experiment is described as follows: flow cytometry on SKOV3 cells (MFI).
The target of experiment [5] is T1, human CD24 protein (ACRO) (human, UniProt P25063 27-59).
T1 construct: also called analyte human CD24 protein
T1 chain (looked up): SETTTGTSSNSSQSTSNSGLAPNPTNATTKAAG
The experiment is described as follows: BLI (ForteBio Octet RED96e), antibody immobilised, human CD24 protein as analyte. On the procedure:
ForteBio […] (BLI) was used to detect the affinity of humanized antibodies. The sample to be tested (solidified) was diluted to 20 μg/mL with 0.02% PBST (buffer). The analyte human CD24 protein (ACRO) was diluted to 100 nM with 0.02% PBST (buffer) as the initial concentration, and then diluted by double gradient for 7 gradients starting from this concentration, and a negative control (buffer) was performed.
The molecular interaction analysis instrument (ForteBio; Octet RED96e) was operated, and 200 μL of curing buffer (0.02% PBST) was added to a pre-wetted plate, and the sensor was pre-wetted for 5-10 min. Diluted samples and other reagents for assay were added into wells in the sample plate corresponding to the pre-wetted sensor.
On the technique in general: In BLI a coated tip is dipped into the sample, and binding shifts an interference pattern.

In experiment [6] the target is T2, CD24 on tumor cells (MCF7, SKOV3, HT55, huCD24-MDA-MB-231, CD24-SKOV3) (human, UniProt P25063 27-59).
T2 construct: whole, on cells; The cell line of each result is named under assay
T2 chain (looked up): T1 chain (looked up)
The experiment is described as follows: flow cytometry on huCD24-MDA-MB-231 cells (MFI); table under the graph prints no unit, unit from the x axis label. In general terms: A flow cytometer gives signals particle by particle.

Experiment [7] concerns the target T2, CD24 on tumor cells (MCF7, SKOV3, HT55, …). The experiment is described as follows: flow cytometry on MCF7 cells (MFI); table under the graph prints no unit, unit from the x axis label. On the procedure: (§1) The commercial antibody SN3 (ABCOM; ab134375) and IgG1 isotype control were used as control. MCF7, SKOV3, HT55 or huCD24-MDA-MB-231 cells were taken and transferred to a centrifuge tube, and centrifuged at 1000 rpm for 5 min. 100 μL of MCF7, SKOV3, HT55, or huCD24-MDA-MB-231 cells were spread in a 96 U plate, respectively, and washed twice with PBS. 100 μL of the fusion supernatant was added, and diluted for 8 gradients. Cells were incubated at 4° C. for 60 minutes, and then washed twice with excess FACS buffer. Cells were resuspended in 100 μL of FACS buffer and sheep anti-mouse secondary antibody-FITC (ABCOM; ab6785) was added to the samples, incubated for 30 minutes and washed twice with excess FACS buffer. Cells were fixed in fixation buffer and subsequently analyzed by flow cytometry.
(§2) The binding activity of the chimeric antibodies CH-01 and CH-02 and tumor cells was detected according to the method of Example 6.

Experiment [8] has the same target. The experiment is described as follows: flow cytometry on SKOV3 cells (MFI); table under the graph prints no unit, unit from the x axis label. Here is the method:
as §1, §2

Experiment [9] shares this target. The experiment is described as follows: flow cytometry on MCF7 cells (MFI). On the procedure: as §1
For experiment [10] the target is unchanged. The experiment in a line: flow cytometry on MCF7 cells (MFI).

Residue numbers refer to the chain shown, from its start.

Regarding IgG1 isotype control (antibody), the 50% effective concentration (EC50) in [1] was 0.142 µg/mL; in experiment [2] it was 49.7 µg/mL; in experiment [3] it was 3.49 µg/mL.

In the case of “commercial antibody SN3 (ABCOM; ab134375)”, the half-maximal effective concentration (EC50 (read off the curve)) in [4] was found to be 2 µg/mL.

B1: chimeric antibody CH-02 (antibody, human IgG1, kappa, V domains shown)
VH: EVQLQESGPDLVKPSQSLSLTCTVTGYSITSGYTWHWIRQFPGNKLEWMGHIQYTGNTKYNPSLESRISITRETSKNQFFLQLNSVTTEDTGTYYCARGSTNSNDYWGQGTSVTVSS
VL: DIVMTQSPSSLAVSVGEKVTVSCKSSQSLLYSNDQKNYLAWYQQKPGQSPKLLIYWASTRESGVPDRFTGSGSGTDFTLTITSVKAEDLAVYYCQQYFIYPLTFGAGTKLELKR
notes: ms-02 variable regions on a human IgG framework, expressed in CHO cells
With B1, the Kd in experiment [5] turned out to be 11.9 nM. This molecule also returned a concentration giving a half-maximal response (EC50) in [6] of 4.03 µg/mL.

B2: chimeric antibody CH-01 (antibody, human IgG1, kappa, V domains shown)
VH: QIQLVQSGPELKKPGETVKISCKASGYIFTDYAIHWVKQAPGKGLKWMGFINTATGEPTYADDFKGRFAFSLETSASTAYLQVNSLKNEDTATYFCTSGVHWGQGTTLTVSS
VL: QIVLTQSPAIMSASLGEEITLTCSASSSVSSMHWYQQKSGTSPKLLIYSTSNLASGVPSRFSGSGSGTFYSLTISSVESEDAADYYCHHWTSYMYTFGGGTKLEIKR
notes: ms-01 variable regions on a human IgG framework, expressed in CHO cells
For B2, the Kd in experiment [5] was found to be 8.08 nM. The EC50 in experiment [7] amounted to 1.69 µg/mL; in [8], 1.2 µg/mL.

B3: murine anti-CD24 antibody ms-01 (antibody, V domains shown)
VH: B2 VH
VL: QIVLTQSPAIMSASLGEEITLTCSASSSVSSMHWYQQKSGTSPKLLIYSTSNLASGVPSRFSGSGSGTFYSLTISSVESEDAADYYCHHWTSYMYTFGGGTKLEIK
notes: Mouse antibody from a hybridoma
Consider B3, for which, in experiment [9], the “EC50 (read off the curve)” value is about 2 µg/mL.

B4: hu-02-L1H8 (antibody, human IgG1, kappa, V domains shown)
VH: EVQLQESGPGLVKPSQTLSLTCTVSGYSITSGYTWHWIRQFPGNKLEWMGHIQYTGNTKYNPSLESRITISRDTSKNQFSLKLSSVTAADTATYYCARGSTNSNDYWGQGTLVTVSS
VL: DIVMTQSPDSLAVSLGERATINCKSSQSLLYSNDQKNYLAWYQQKPGQPPKLLIYWASTRESGVPDRFSGSGSGTDFTLTISSLQAEDVAVYYCQQYFIYPLTFGGGTKLELKR
notes: also called humanized antibody hu-02-L1H8
Turning to B4, the binding result in experiment [10] was “binds”.

B5: humanized antibody hu-02-L1H1 (antibody, human IgG1, kappa, V domains shown)
VH: B4 VH with E1Q, F41H, N44K, K45G, M49I, I68V, R72V, T93V
VL: B4 VL
notes: Humanized from ms-02: light chain L1, heavy chain H1
Molecule B5 came in with a dissociation constant (Kd) in experiment [5] of 62.7 nM. The molecule also gave an EC50 in experiment [6] of 2.08 µg/mL.

B6: humanized antibody hu-02-L1H7 (antibody, human IgG1, kappa, V domains shown)
VH: B4 VH with M49I
VL: B4 VL
notes: Humanized from ms-02: light chain L1, heavy chain H7
Regarding B6, the dissociation constant Kd in [5] worked out at 20.5 nM. The molecule also returned a concentration giving a half-maximal response (EC50) in [6] of 3.42 µg/mL.

B7: humanized antibody hu-01-L2H3 (antibody, human IgG1, kappa, V domains shown)
VH: QVQLVQSGSELKKPGASVKVSCKASGYIFTDYAIHWVKQAPGQGLEWMGFINTATGEPTYADDFKGRFVFSLDTSVSTAYLQISSLKAEDTAVYFCTSGVHWGQGTLVTVSS
VL: DIQMTQSPSTLSASVGDRVTITCSASSSVSSMHWYQQKPGKAPKLLIYSTSNLASGVPSRFSGSGSGTEYTLTISSLQPDDFATYYCHHWTSYMYTFGGGTKVEIKR
notes: Humanized from ms-01: light chain L2, heavy chain H3
The molecule B7 displayed a Kd in [5] of 9.03 nM.

B8: humanized antibody hu-01-L1H4 (antibody, human IgG1, kappa, V domains shown)
VH: B7 VH with E46K
VL: B7 VL with Y70F
notes: Humanized from ms-01: light chain L1, heavy chain H4
On to B8, for which the affinity in [5], expressed as Kd, was 48.2 nM.

B9: humanized antibody hu-01-L2H4 (antibody, human IgG1, kappa, V domains shown)
VH: B7 VH with E46K
VL: B7 VL
notes: Humanized from ms-01: light chain L2, heavy chain H4
As for B9, in experiment [5], the Kd was 39.1 nM.

B10: humanized antibody hu-01-L1H3 (antibody, human IgG1, kappa, V domains shown)
VH: B7 VH
VL: B7 VL with Y70F
notes: Humanized from ms-01: light chain L1, heavy chain H3
The molecule B10 registered a Kd in [5] of 10 nM.

B11: humanized antibody hu-01-L3H2 (antibody, human IgG1, kappa, V domains shown)
VH: B7 VH with K38R
VL: B7 VL with M4L, A42S
notes: Humanized from ms-01: light chain L3, heavy chain H2
Turning to B11, the dissociation constant Kd in experiment [5] worked out at 8.29 nM.

B12: humanized antibody hu-01-L2H1 (antibody, human IgG1, kappa, V domains shown)
VH: B7 VH with K38R, F95Y, T97A, S98R
VL: B7 VL
notes: Humanized from ms-01: light chain L2, heavy chain H1
For the molecule B12, the binding result in experiment [5] is recorded as “no binding (tested: 100 nM (highest analyte concentration))”.

B13: humanized antibody hu-01-L3H3 (antibody, human IgG1, kappa, V domains shown)
VH: B7 VH
VL: B7 VL with M4L, A42S
notes: Humanized from ms-01: light chain L3, heavy chain H3
Regarding B13, binding in experiment [5] was put at a Kd of 12.4 nM.

B14: humanized antibody hu-01-L1H2 (antibody, human IgG1, kappa, V domains shown)
VH: B7 VH with K38R
VL: B7 VL with Y70F
notes: Humanized from ms-01: light chain L1, heavy chain H2
For the molecule B14, in experiment [5], the equilibrium dissociation constant (Kd) came to 5.58 nM.

B15: humanized antibody hu-01-L2H2 (antibody, human IgG1, kappa, V domains shown)
VH: B7 VH with K38R
VL: B7 VL
notes: Humanized from ms-01: light chain L2, heavy chain H2
The molecule B15 came in with a Kd in experiment [5] of 10.5 nM.

B16: humanized antibody hu-01-L3H4 (antibody, human IgG1, kappa, V domains shown)
VH: B7 VH with E46K
VL: B7 VL with M4L, A42S
notes: Humanized from ms-01: light chain L3, heavy chain H4
In experiment [5], B16 yielded an equilibrium dissociation constant (Kd) of 41.2 nM.
